Assay results published in US8563520B2, “Treatment of ocular disease with inhibitors of alpha2 macroglobulin protein” (McGill University, priority 2005, dated 2013).

Tested on: retinal ganglion cells (RGCs)
Assay: RGC loss after intraocular injection of α2 macroglobulin protein in normal eyes
Format: in vivo, rat
Experimental: RGCs were labeled with 3% DII (1,1-dioctadecyl-3,3,3,3-tetramethylindocarbocyanine perchlorate) or with 3% fluorogold. Briefly, Wistar rats were anesthetized and their heads were mounted in a stereotactic apparatus.
7 days after dye injection, the vasculature of the rats were perfused-fixed (transcardiac perfusion in phosphate-buffer (PB), followed by 4% PFA in PB) and the eyes were enucleated. After post-fixing for 1 hour cuts were made through the sclera to form a Maltese cross pattern and retinas detached from the eyecup at the optic nerve head. The retinas were flat-mounted on glass slides (vitreous side up) air-dried and cover-slipped with mounting medium (Molecular Probes). The retinas were observed under fluorescence microscopy (Zeiss). […] RGCs were recognized in flat mounted retinas by the presence of retrogradely transported dye and by morphology. RGCs in all 4 quadrants (16 images per retina) were averaged and presented as […] of area counted.
To evaluate the potential role of α2 macroglobulin in the death of RGCs, α2 macrobglobulin protein was microinjected in normal eyes to determine whether glaucoma-like RGC death ensued. In this paradigm, a total of 1-2 μg of α2 macroglobulin were delivered by a single intraocular injection in normal eyes, and surviving RGCs were counted at days 14 or 28 post-injection, by retrograde labeling. […]

B1: α2m: α2 macroglobulin protein injected intraocularly into normal rat eyes (protein, UniProt P06238 28-1472, looked up)
Alpha-2-macroglobulin: SAPQKPIYMVMVPSLLHAGTPEKACFLFSHLNETVAVRVSLESVRGNQSLFTDLVVDKDLFHCTSFTVPQSSSDEVMFFTVQVKGATHEFRRRSTVLVKKKESLVFAQTDKPIYKPGQTVRFRVVSLDESFHPLNELIPLLYIQDPKNNRIAQWQNFNLEGGLKQLSFPLSSEPTQGSYKVVIRTESGRTVEHPFSVEEFVLPKFEVRVTVPETITILEEEMNVSVCGIYTYGKPVPGRVTVNICRKYSNPSNCFGEESVAFCEKLSQQLDGRGCFSQLVKTKSFQLKRQEYEMQLDVHAKIQEEGTGVEETGKGLTKITRTITKLSFVNVDSHFRQGIPFVGQVLLVDGRGTPIPYETIFIGADEANLYINTTTDKHGLARFSINTDDIMGTSLTVRAKYKDSNACYGFRWLTEENVEAWHTAYAVFSPSRSFLHLESLPDKLRCDQTLEVQAHYILNGEAMQELKELVFYYLMMAKGGIVRAGTHVLPLKQGQMRGHFSILISMETDLAPVARLVLYAILPNGEVVGDTAKYEIENCLANKVDLVFRPNSGLPATRALLSVMASPQSLCGLRAVDQSVLLMKPETELSASLIYDLLPVKDLTGFPQGADQREEDTNGCVKQNDTYINGILYSPVQNTNEEDMYGFLKDMGLKVFTNSNIRKPKVCERLRDNKGIPAAYHLVSQSHMDAFLESSESPTETRRSYFPETWIWDLVVVDSAGVAEVEVTVPDTITEWKAGAFCLSNDTGLGLSPVVQFQAFQPFFVELTMPYSVIRGEAFTLKATVLNYLPTCIRVAVQLEASPDFLAAPEEKEQRSHCICMNQRHTASWAVIPKSLGNVNFTVSAEALNSKELCGNEVPVVPEQGKKDTIIKSLLVEPEGLENEVTFNSLLCPMGAEVSELIALKLPSDVVEESARASVTVLGDILGSAMQNTQDLLKMPYGCGEQNMVLFAPNIYVLDYLNETQQLTQEIKTKAIAYLNTGYQRQLNYKHRDGSYSTFGDKPGRNHANTWLTAFVLKSFAQARKYIFIDEVHITQALLWLSQQQKDNGCFRSSGSLLNNAMKGGVEDEVTLSAYITIALLEMSLPVTHPVVRNALFCLDTAWKSARGGAGGSHVYTKALLAYAFALAGNQDTKKEILKSLDEEAVKEEDSVHWTRPQKPSVSVALWYQPQAPSAEVEMTAYVLLAYLTTEPAPTQEDLTAAMLIVKWLTKQQNSHGGFSSTQDTVVALHALSKYGSATFTRAKKAAQVTIHSSGTFSTKFQVNNNNQLLLQRVTLPTVPGDYTVKVTGEGCVYLQTSLKYSVLPREEEFPFTVVVQTLPGTCEDPKAHTSFQISLNISYTGSRSESNMAIADVKMVSGFIPLKPTVKMLERSVHVSRTEVSNNHVLIYLDKVSNQTVNLSFTVQQDIPIRDLKPAVVKVYDYYEKDEFAVAKYSAPCSTDYGNA
- RGC losses compared to vehicle PBS (2 weeks after single intraocular injection of 1-2 μg in normal eyes): 11±3%
- RGC losses compared to vehicle PBS (4 weeks after single intraocular injection of 1-2 μg in normal eyes): 28±11%
